Assay [1] addresses Mouse NRP1 (Recombinant Mouse Neuropilin-1 Protein, CF) (mouse) (UniProt P97333). The assay can be described thus: SPR; Pioneer SensiQ; mouse NRP1 immobilised on a Polycarboxylate High Capacity (PCH) chip in 10 mM sodium acetate pH 5.0 (2307 RU for mouse SEMA3A Fc, 1565 RU for human SEMA3A Fc); SEMA3A-Fc flowed over; running buffer 20 mM HEPES pH 7.5, 150 mM NaCl, 0.005% Tween-20; OneStep kinetics, single concentration (100 nM mouse or 50 nM human SEMA3A Fc), 75 ul/min. (In SPR one partner is held on a chip, and binding of the other changes the refractive index at the surface.)

The target of assay [2] is T1, Mouse NRP1 (Recombinant Mouse Neuropilin-1 Protein, CF) (mouse, UniProt P97333 22-856).
T1 construct: Neuropilin-1, mouse, recombinant soluble protein; also called murine NRP1; mouse NRP1 receptor; source: bought: R&D Systems
T1 sequence (looked up): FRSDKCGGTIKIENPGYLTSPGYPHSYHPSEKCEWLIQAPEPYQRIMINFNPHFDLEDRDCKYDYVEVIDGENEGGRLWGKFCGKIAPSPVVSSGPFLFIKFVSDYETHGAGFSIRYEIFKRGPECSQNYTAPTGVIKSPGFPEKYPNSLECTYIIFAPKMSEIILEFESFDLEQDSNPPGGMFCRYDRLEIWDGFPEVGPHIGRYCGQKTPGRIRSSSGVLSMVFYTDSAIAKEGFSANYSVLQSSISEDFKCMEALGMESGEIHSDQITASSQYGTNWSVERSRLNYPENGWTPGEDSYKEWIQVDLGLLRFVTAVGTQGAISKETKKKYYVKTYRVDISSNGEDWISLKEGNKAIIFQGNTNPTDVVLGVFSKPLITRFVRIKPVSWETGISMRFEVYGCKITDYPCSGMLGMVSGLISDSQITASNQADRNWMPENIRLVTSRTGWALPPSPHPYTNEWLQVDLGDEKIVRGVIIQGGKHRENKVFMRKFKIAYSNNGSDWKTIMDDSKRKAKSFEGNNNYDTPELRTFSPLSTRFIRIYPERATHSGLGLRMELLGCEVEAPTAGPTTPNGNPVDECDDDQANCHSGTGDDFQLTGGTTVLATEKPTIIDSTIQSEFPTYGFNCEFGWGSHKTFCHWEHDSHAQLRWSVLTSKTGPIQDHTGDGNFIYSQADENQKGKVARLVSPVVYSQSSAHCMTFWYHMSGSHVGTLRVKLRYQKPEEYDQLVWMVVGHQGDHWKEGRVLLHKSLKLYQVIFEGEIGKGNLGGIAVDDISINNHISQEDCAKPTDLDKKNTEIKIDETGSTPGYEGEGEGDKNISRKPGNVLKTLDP
The description is as above. The following applies: both partners purified.

As a reminder, the Kd is the free concentration of one partner at which half of the binding sites on the other are occupied at equilibrium, for simple one-to-one binding.

“recombinant human full length SEMA3A Fc (huSEMA3A, Lys26-Val771) (from UniProt Q14563 26-771) (Fc fusion)”: in assay [1], the Kd is 1.8 nM.

B1: recombinant mouse SEMA3A Fc (muSEMA3A, Asn21-Lys747) (Fc fusion, UniProt O08665 21-747, looked up)
chain: NYANGKNNVPRLKLSYKEMLESNNVITFNGLANSSSYHTFLLDEERSRLYVGAKDHIFSFNLVNIKDFQKIVWPVSYTRRDECKWAGKDILKECANFIKVLEAYNQTHLYACGTGAFHPICTYIEVGHHPEDNIFKLQDSHFENGRGKSPYDPKLLTASLLIDGELYSGTAADFMGRDFAIFRTLGHHHPIRTEQHDSRWLNDPRFISAHLIPESDNPEDDKVYFFFRENAIDGEHSGKATHARIGQICKNDFGGHRSLVNKWTTFLKARLICSVPGPNGIDTHFDELQDVFLMNSKDPKNPIVYGVFTTSSNIFKGSAVCMYSMSDVRRVFLGPYAHRDGPNYQWVPYQGRVPYPRPGTCPSKTFGGFDSTKDLPDDVITFARSHPAMYNPVFPINNRPIMIKTDVNYQFTQIVVDRVDAEDGQYDVMFIGTDVGTVLKVVSVPKETWHDLEEILLEEMTVFREPTTISAMELSTKQQQLYIGSTAGVAQLPLHRCDIYGKACAECCLARDPYCAWDGSSCSRYFPTAKRRTRRQDIRNGDPLTHCSDLQHHDNHHGPSLEERIIYGVENSSTFLECSPKSQRALVYWQFQRRNEDRKEEIRMGDHIIRTEQGLLLRSLQKKDSGNYLCHAVEHGFMQTLLKVTLEVIDTEHLEELLHKDDDGDGSKIKEMSSSMTPSQKVWYRDFMQLINHPNLNTMDEFCEQVWKRDRKQRRQRPGHSQGSSNK
notes: Semaphorin 3A, mouse, Asn21-Lys747, truncated at the C-terminus (lacks the RNRR and RAPR stretches); also called Murine SEMA3A Fc; truncated murine SEMA3A; source: bought: R&D Systems
Turning to B1, the dissociation constant Kd in assay [2] is about 4.4 nM.

The values are drawn from publication PMC8635308, “Neuropilin 1 regulates bone marrow vascular regeneration and hematopoietic reconstitution” (Nature Communications, 2021).
